According to patent publication US9120851B2, “Human antibodies to human angiopoietin-like protein 4” (Regeneron Pharmaceuticals, Inc., priority 2009, dated 2015):

What was measured:
hANGPTL4(26-148)-mFc = biological target: T1, hANGPTL4(26-148)-mFc (Homo sapiens, UniProt Q9BY76); assay: BIACORE, full mAb or Fab over anti-mFc captured hANGPTL4(26-148)-mFc; assay type: binding
T1 construct: amino acid residues 26-148 of human ANGPTL4 fused in-line to mouse IgG2a (hANGPTL4-mFc)
Description: (§1) Briefly, various concentrations (3.125 nM-100 nM) of anti-hANGPTL4 antibodies (i.e., H1H268 Fab, entire H1H268 mAb, H1H284 Fab, and entire H1H284 mAb) were injected over a low density anti-mFc captured hANGPTL4(26-148)-mFc (˜68±4 RU) surface, or the surface of amino-coupled hANGPTL4(26-406)-His (R&D Systems) (450 RU) or amino-coupled cynomolgus monkey N-terminal region (amino acid residues 1-130 of SEQ ID NO:490) expressed with an C-terminal hexa-histidine tag (MfANGPTL4(1-130)-His) (1,028 RU). Kinetic analysis was performed to measure ka and kd, and KD values and half-life of antigen/antibody complex dissociation were calculated. The results are shown in Table 4 (H1H268P) and Table 5 (H1H284P).

MfANGPTL4(1-130)-His = assay: BIACORE, full mAb or Fab over amino-coupled MfANGPTL4(1-130)-His; assay type: binding, cynomolgus monkey; conditions: for Response bound at 50 nM mAb or Fab: amino-coupled 1,028 RU
Chain of MfANGPTL4(1-130)-His (as listed by the source): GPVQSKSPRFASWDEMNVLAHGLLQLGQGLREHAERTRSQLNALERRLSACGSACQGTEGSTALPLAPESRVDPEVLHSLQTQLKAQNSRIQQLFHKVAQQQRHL
Description: as §1

[1] = biological target: T2, hANGPTL4 peptide (R34-L66 of SEQ ID NO:476) (Homo sapiens, UniProt Q9BY76); assay: BIACORE, hANGPTL4 peptides injected over captured antibody; assay type: binding; conditions: for ka: 62.5 nM-500 nM
T2 sequence (Q9BY76 34-66 limits assumed): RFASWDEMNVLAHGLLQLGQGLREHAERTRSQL
Description: Further, the binding affinities of H1H268P and H1H284P for various ANGPTL3 and ANGPTL4 peptides were also determined by BIACORE™ system. Briefly, H1H268P (1348±11 RU) and H1H284P (868±13 RU) were captured over anti-human Fc surface and various concentrations (62.5 nM-500 nM) of the hANGPTL3 and hANGPTL4 peptides were injected. The peptides tested were hANGPTL4 (R34-L66 of SEQ ID NO:476), N-terminally biotinylated hANGPTL4 (R34-L66 of SEQ ID NO:476), hANGPTL3 (R36-I68 of SEQ ID NO:485), and N-terminally biotinylated hANGPTL3 (R36-I68 of SEQ ID NO:485). Kinetic analysis was performed to measure ka and kd, and KD values and half-life of antigen/antibody complex dissociation were calculated. NB: No binding under the experimental conditions described.

mANGPTL4(26-410)-His = biological target: T3, mANGPTL4(26-410)-His (Mus musculus, UniProt Q9Z1P8); assay: Cell-free LPL bioassay, inhibition of mANGPTL4-His; assay type: biochemical; conditions: constant 1 nM mANGPTL4(26-410)-His; antibody 0 to 100 nM; NB: Not blocking
T3 sequence (Q9Z1P8 26-410): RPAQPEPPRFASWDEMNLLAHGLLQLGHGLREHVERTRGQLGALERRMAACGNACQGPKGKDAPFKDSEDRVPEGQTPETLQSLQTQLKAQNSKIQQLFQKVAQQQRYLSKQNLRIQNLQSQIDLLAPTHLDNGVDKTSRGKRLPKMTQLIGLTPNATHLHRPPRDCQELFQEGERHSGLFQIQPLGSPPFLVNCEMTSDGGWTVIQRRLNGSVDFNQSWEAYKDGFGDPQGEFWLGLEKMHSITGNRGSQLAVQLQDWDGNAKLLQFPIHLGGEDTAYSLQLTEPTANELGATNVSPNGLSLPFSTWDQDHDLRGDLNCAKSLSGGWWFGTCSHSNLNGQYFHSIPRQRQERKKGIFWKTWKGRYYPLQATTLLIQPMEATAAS

humanized ANGPTL4 mice = assay: Serum TG levels in humanized ANGPTL4 mice; assay type: in vivo, mouse; conditions: for Serum TG: mean±SEM
Description: The effect of anti-hANGPTL4 antibodies H1H268P and H1H284P on serum TG levels was determined in mice expressing the ANGPTL4 protein containing the human N-terminal coil-coil region (“humanized ANGPTL4 mice”). The humanized ANGPTL4 mouse was made by replacing first three exons of the mouse Angptl4 gene (the N terminal coil-coil region) with the corresponding human N-terminal coil-coil ANGPLT4 sequence in C57BL6/129 (F1H4) embryonic stem cells. After germ line transmission was established, heterozygous mice (ANGPTL4hum/+) were bred together to generate homozygous mice [ANGPTL4hum/hum or hANGPTL4(+/+)] on a C57BL6 background. Humanized ANGPTL4 mice were pre-bled 7 days before (day −7) the experiment and put into groups of six mice each for each antibody tested. Antibodies (H1H268P, H1H284P and isotype-matched (hIgG1) control with no known cross-reactivity to mouse antigens) were administered at 10 mg/kg dose by subcutaneous injection. Mice were bled after 4 hours of fasting at days 1, 4, 7 and 11 after antibody injection; and serum TG levels were determined by ADVIA® 1800 Chemistry System (Siemens). Average TG levels were calculated for each time point for each antibody.
The effect of anti-hANGPTL4 antibodies, H4H268P2 and H4H284P, on serum TG levels was determined in humanized ANGPTL4 mice. Humanized ANGPTL4 mice were pre-bled 7 days before the experiment and put into groups of six mice each for each antibody tested. Antibodies (H4H268P2, H4H284P and isotype-matched (hIgG4) control with no known cross-reactivity to mouse antigens) were administered at 10 mg/kg dose by subcutaneous injection. Mice were bled after 4 hours of fasting at days 1, 4, 7 and 11 after antibody injection; and TG levels were determined in the serum by ADVIA® 1800 Chemistry System (Siemens). Average TG levels were calculated for each time point for each antibody.

[2] = hANGPTL4 peptide (not biotinylated)
[3] = day 1 after injection, 10 mg/kg s.c., 4 h fasting
[4] = day 4 after injection, 10 mg/kg s.c., 4 h fasting
[5] = day 7 after injection, 10 mg/kg s.c., 4 h fasting
[6] = day 11 after injection, 10 mg/kg s.c., 4 h fasting

T1 sequence (Q9BY76 with tags, fused parts or gaps): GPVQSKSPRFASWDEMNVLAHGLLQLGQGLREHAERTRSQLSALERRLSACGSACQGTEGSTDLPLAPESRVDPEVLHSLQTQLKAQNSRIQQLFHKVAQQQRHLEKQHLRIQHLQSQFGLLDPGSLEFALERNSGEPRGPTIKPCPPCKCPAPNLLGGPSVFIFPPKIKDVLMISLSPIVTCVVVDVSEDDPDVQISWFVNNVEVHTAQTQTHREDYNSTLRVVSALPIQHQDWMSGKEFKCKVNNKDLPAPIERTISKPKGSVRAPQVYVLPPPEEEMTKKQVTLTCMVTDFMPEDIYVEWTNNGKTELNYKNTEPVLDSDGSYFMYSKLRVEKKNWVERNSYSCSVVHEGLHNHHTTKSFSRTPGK

| Molecule | ka (hANGPTL4(26-148)-mFc; pH 5.75, 25° C.) [M⁻¹ s⁻¹] | kd (hANGPTL4(26-148)-mFc; pH 5.75, 25° C.) [s⁻¹] | ka (hANGPTL4(26-148)-mFc; pH 7.2, 25° C.) [M⁻¹ s⁻¹] | kd (hANGPTL4(26-148)-mFc; pH 7.2, 25° C.) [s⁻¹] | ka (MfANGPTL4(1-130)-His; pH 5.75, 25° C.) [M⁻¹ s⁻¹] | kd (MfANGPTL4(1-130)-His; pH 5.75, 25° C.) [s⁻¹] | Response bound at 50 nM mAb or Fab (MfANGPTL4(1-130)-His; pH 5.75, 25° C.) | ka (MfANGPTL4(1-130)-His; pH 7.2, 25° C.) [M⁻¹ s⁻¹] | kd (MfANGPTL4(1-130)-His; pH 7.2, 25° C.) [s⁻¹] | Response bound at 50 nM mAb or Fab (MfANGPTL4(1-130)-His; pH 7.2, 25° C.) | IC50 (mANGPTL4(26-410)-His) [µM] | Serum TG (humanized ANGPTL4 mice; [3]) [mg/dL] | Serum TG (humanized ANGPTL4 mice; [4]) [mg/dL] | Serum TG (humanized ANGPTL4 mice; [5]) [mg/dL] | Serum TG (humanized ANGPTL4 mice; day −7 (pre-bleed)) [mg/dL] | Serum TG (humanized ANGPTL4 mice; [6]) [mg/dL] | other results |
| --- | --- | --- | --- | --- | --- | --- | --- | --- | --- | --- | --- | --- | --- | --- | --- | --- | --- |
| H1H268P: anti-hANGPTL4 antibody, hIgG1 isotype, HCVR/LCVR SEQ ID NOs 42/44 (antibody, V domains shown) VH: QVQLQESGAGLLKPSETLSLTCTVYGGSFSIHHWTWIRHPPGKGLEWIGEINHRGSTNYNPSLKSRVTISIDTSKNQFSLKLSAVTAADTAVYYCARGLRFLDWLSSYFDYWGQGTLVTVSS VL: DIQMTQSPSSLSASVGDRVTITCRASQGISDYLAWYQQKPGKVPNLLIYAASALQSGVPSRFSGSGSGTDFTLTISSLQPEDVATYYCQNYNTAPLTFGGGTKVEIK | 628000 | 0.000138 | 153000 | 9.59e-05 | 107000 | 8.24e-05 | 583 | 392000 | 4.76e-05 | 279 | > 0.1 | 129.8 ± 5.6 | 73.3 ± 8.9 | 83 ± 14 | 112 ± 9.3 |  | kd ([1]; hANGPTL4-Nterm biotin peptide): 0.000294 s⁻¹; ka ([1]; hANGPTL4-Nterm biotin peptide): 4530 M⁻¹ s⁻¹; kd [1, 2]: 0.000365 s⁻¹; ka [1, 2]: 6490 M⁻¹ s⁻¹; reduction in circulating TG compared to isotype-matched control antibody (humanized ANGPTL4 mice; 4-11 days after administration, 10 mg/kg s.c.): 25-30% |
| H1H284P: anti-hANGPTL4 antibody, hIgG1 isotype, HCVR/LCVR SEQ ID NOs 90/92 (antibody, V domains shown) VH: QVQLVESGGGVVQPGRSLRLSCAASGFTFSSYGMHWVRQAPGKGLEWMAVISFDGGNKNNADSVKGRFTISRDNSKNTLYLQMNSLRAEDTAVYYCAKEGDRSGHPYFYYYGLDVWGQGTTVTVS VL: DIQLTQSPSFLSASVGDRVTITCWASQGISSYLAWYQQKPGKAPKLLIYAASTLQSGVPSRFSGSGSETEFTLTISSLQPEDFATYYCQQLHSYPLTFGGGTKVEIK | 1.09e+06 | 8.91e-05 | 274000 | 5.36e-05 | 1.55e+06 | 8.42e-05 | 804 | 467000 | 5.83e-05 | 414 | > 0.1 | 125 ± 18 | 67 ± 9.8 | 91 ± 7.2 | 113 ± 11 | 109 ± 11 | binding to the hANGPTL4 peptides, in words ([1]; both peptides, highest peptide concentration tested 500 nM): did not bind; TG levels relative to control, in words (humanized ANGPTL4 mice; day 11 after injection, 10 mg/kg s.c.): increased back to control level |
| H4H268P2: IgG4 version of H1H268P with a single amino acid substitution in framework region 1, HCVR/LCVR SEQ ID NOs 487/44 (antibody, V domains shown, IgG4 constant region) VH: QVQLQQSGAGLLKPSETLSLTCTVYGGSFSIHHWTWIRHPPGKGLEWIGEINHRGSTNYNPSLKSRVTISIDTSKNQFSLKLSAVTAADTAVYYCARGLRFLDWLSSYFDYWGQGTLVTVSS VL: DIQMTQSPSSLSASVGDRVTITCRASQGISDYLAWYQQKPGKVPNLLIYAASALQSGVPSRFSGSGSGTDFTLTISSLQPEDVATYYCQNYNTAPLTFGGGTKVEIK |  |  |  |  |  |  |  |  |  |  |  | 81 ± 6.8 | 67 ± 5.3 | 56 ± 7.1 | 101 ± 9.3 | 87 ± 8.7 | reduction in circulating TG compared to isotype-matched control antibody, in words (humanized ANGPTL4 mice; day 1, 10 mg/kg s.c.): significant reduction; reduction in circulating TG compared to isotype-matched control antibody, in words (humanized ANGPTL4 mice; day 4, 10 mg/kg s.c.): significant reduction |
